{
  "source": "the DeepSol protein solubility set",
  "data": [
    {"assay": "soluble on expression in E. coli; label from the status in PepcDB or PDB records", "values": [
      {"sequence": "MGLDISDETLKIQKKKENENRVIILMIPGNPGNEGFYAHFGREVLQNLIKKDEDEQKNLKNQYLFYTVSSLNHVRMPDHLKDDGEHRNHDRISLEEQVNHKLSFVKEHLPRGKQLYILGHSIGSYMMLRIIPEVIKEGFHVEKAVGLFPTIVHMANSPNGKRLHGTLATLNHHDWLTKTICWWVDYLPNSIKKFLVGLNLRHPNTPPEIVDAAVELVHMDVFRNIVHMSNDELDIVLDLDERLLEKQDVVHFYYGLKDGWCPVQHGYSMRDRLGEEQVTLDEDNCEHAFVISEGDIMARNVIKYFD", "soluble on expression in E. coli": "not soluble"},
      {"sequence": "MAHHHHHHSLCKAFCSCYSYHYHHREKMGIKEYYDKLAKSYDKLYKNKYMRIVEREIIQKEIKDGDFVLDIGCGTGEQLKILNNAVGLDISLEMAKIAKNKTNKPVVVANAEFLPFKNKSFDKAISFFGALNHCNLKRALREVNRVLKDDGIFIFTVANIYDIKWIIKNILKGNFKKVKNAMKKRKGTITKVIDGEKIKVKTRFYDFKEVEDALKKEGFEVVYTFGTNITNSPLDKFIYKSFLKNFASYIGFVAKKVKNREG", "soluble on expression in E. coli": "not soluble"},
      {"sequence": "MQCYSIVGINYIQIYKAVTRNGIKHNIVVIKNSDYIFTITHYSPRTEYWTIVGNTDRQFYDANVLHNCLYIIGGMINNRHVYSVSRVDLKTKKWKTVTNMSSLKSEVSTCVNDGKLYVIGGLEFSISTGIAEYLKHGTSKWKRLPNLITPRYSGASVFVNDDIYVMGGVYTTMRNM", "soluble on expression in E. coli": "not soluble"},
      {"sequence": "MGSDKIHHHHHHMTQCPLVSISCLTYNHAPYLRQCLDGFVMQITSFPIEILIYDDASGDGTQNIIEEYQKKYPDIIKPIYQTENQYSKGVKVGFVYNYSRAKGEYIAFCEGDDYWTDPYKLQKQIDFLECYSDYVICSHRYRICLKEEKVMNDEIKPIGDLSDGMSFDLSFLIRGGWLFQPLSVVYRKSALDLDTYSKYAIYIDVALFYAILKNGKGYCMPDVMGVYRIHEKGVWSGLDLNHQRIFSLKAREAIYDVEKTDEAAMFILSQFSRPMGRFLVVKECSMFMRITKILISHFGLRFVLRMWFDRLFLNKKLCVNEFYQIKDFCKRKKNG", "soluble on expression in E. coli": "not soluble"},
      {"sequence": "GPGSMASKKQADGSKDIGDAAWREKLTTQEYRVLRQKATDPPFGAYNTHFETGTYHCAGCGTLLYKSSMKFPCECGWPAFFDCVPLAVREEPDSDGVRTEILCNACGGHLGHVFRGEGFNNPPPNERHCVNGTAIRFQSEK", "soluble on expression in E. coli": "soluble"},
      {"sequence": "SSEDLAKQLASYKAQLQQVEAALSGNGENEDLLKLKKDLQEVIELTKDLLSTQPSETLASSDSFASTQPTHSWKVGDKCMAVWSEDGQCYEAEIEEIDEENGTAAITFAGYGNAEVTPLLNLKPVEEGRKAKEDSGNKPMSKKEMIAQQREYKKKKALKKAQRIKELEQEREDQKVKWQQFNNRAYSKNKKGQVKRSIFASPESVTGKVGVGTCGIADKPMTQYQDTSKYNVRHLMPQ", "soluble on expression in E. coli": "soluble"},
      {"sequence": "MTETTENVVITIPDKTSFTFHEAATSPSEGEEFVVGHFRELTVKISGSSTSREIKFYAVDENGEKTALSGTNKTDFQLGSSTLNTNEYWDFDIAGLFKVMFEVVSVTGDVTVKGIVVSLEHHHHHH", "soluble on expression in E. coli": "soluble"},
      {"sequence": "HHHHHHGSGAVKLSVSYRNGTLFIMVMHIKDLVTEDGADPNPYVKTYLLPDTHKTSKRKTKISRKTRNPTFNEMLVYSGYSKETLRQRELQLSVLSAESLRENFFLGGITLPLKDFNLSKETVKWYQLTAATYL", "soluble on expression in E. coli": "soluble"},
      {"sequence": "MRKKISIIGAGFVGSTTAHWLAAKELGDIVLLDIVEGVPQGKALDLYEASPIEGFDVRVTGTNNYADTANSDVIVVTSGAPRKPGMSREDLIKVNADITRACISQAAPLSPNAVIIMVNNPLDAMTYLAAEVSGFPKERVIGQAGVLDAARYRTFIAMEAGVSVKDVQAMLMGGHGDEMVPLPRFSTISGIPVSEFIAPDRLAQIVERTRKGGGEIVNLLKTGSAYYAPAAATAQMVEAVLKDKKRVMPVAAYLTGQYGLNDIYFGVPVILGAGGVEKILELPLNEEEMALLNASAKAVRATLDTLKSL", "soluble on expression in E. coli": "soluble"},
      {"sequence": "MGSDKIHHHHHHMSDYYKTYDLKHVINASGKMTILGVSKVPEVAIQAQQFGDTHFFEIKDLVDKTGAYIAKKLGTEGAVVVNSASAGIAEAVAGIIGQGSKYHAYHPFSPRFTKREIILPKGQNVDYGTPEEVMIELGGGQVVEAGYANMCTPEHIEMMITEQTAAIFYVKSHHAVQKSMLTIPEALEVAHKHDLPLILDAAAEEDLKKYVDLGVDVVLFSGAKAIEGPASGLVFGKEPYIGWTKLQSLGIGRAMKIGKENILGFTTALIHYLDNGPESGDAMKARLHPFVAALNEVPHLNVKEVQDGAGRPIFRAAVTVEATSPNNAKQVTAELKAGDPAIYTREYRANEGIIEFDIRAVDQAEMDLIVTRLKEILA", "soluble on expression in E. coli": "not soluble"},
      {"sequence": "MSLLSGDETLTVYLARVLSCPELFRVSTPEEARRIAEKILSGEIEPPLEFFGLRRDAVNEVLAVTDGPAGENVAPVGLRVRGDSIVVNLYPGSRTYENFVRTEELTACIVPDPIRFLKALSKELAIETVGDGTKVAEGTRAYLELEAKEIHEGKPLTAELQVVGWGLLHPRPRALVRGESALLEALVELTRIHLDEDHVDACKRALEVVKRTIWSEEYQWAVEKVERELRGKEDGPDHQDTSPRIRRATGEGHHHHHH", "soluble on expression in E. coli": "soluble"},
      {"sequence": "MEITNVNEYEAIAKQKLPKMVYDFYASGAEDQWTLAENRNAFSRILFRPRILIDVTNIDMTTTILGFKISMPIMIAPTAMQKMAHPEGEYATARAASAAGTIMTLSSWATSSVEEVASTGPGIRFFQLYVYKDRNVVAQLVRRAERAGFKAIALTVDTPRLGRREADIKNRFVLPPFLTLKNFEGIDLGKMDKANDSGLSSYVAGQIDRSLSWKDVAWLQTITSLPILVKGVITAEDARLAVQHGAAGIIVSNHGARQLDYVPATIMALEEVVKAAQGRIPVFLDGGVRRGTDVFKALALGAAGVFIGRPVVFSLAAEGEAGVKKVLQMMRDEFELTMALSGCRSLKEISRSHIAADWDGPSSRAVARL", "soluble on expression in E. coli": "soluble"},
      {"sequence": "SQSLGDRQRDNEKIDKMQQILRSVNAGIEDKGKVIARYTDVIKQELLINQDGTVAKTFEGEQLAQNEAFTLNTRNAFKSAANDPSISLPLYIAEIEGQKK", "soluble on expression in E. coli": "not soluble"},
      {"sequence": "MKKEIKFSLVYRDMWQSSGKYQPRADQLVRIAPLIIEMGCFSRVETNGGAFEQVNLLYGENPNKAVRAFTKPFHEASIQTHMLDRGLNGLRMYPVPADVRRLMYKVKHAQGVDITRIFCGLNEVRNIIPSIHYALEAGMIPQATLCITFSPVHTVEYYTAIAERLIEAGAPEICLKDMAGVGRPEMLGRLTKAIKERHPEIIIQYHGHSGPGLSMASILEVCENGADIIDVAMEPISWGKVHPDVISVQAMLKDAGFQVPEINMKAYMKARAMTQEFIDDFLGYFMDPTNKHMSSLLLKCGLPGGMMGSMMADLKGVHSGINLILRGKNEPELSIDDLLVMLFDEVEYVWPKLGYPPLVTPFSQYVKNVALMNVMSLIKGEERWTMIDNHTWDMILGKSGRLPGALAPEIIALAKEKGYEFTDEDPQKNYPDQLDEYRKEMTENGWDFGQDDEELFELAMHDRQYRDYKSGIAKKRFEDDLQRAKDAALAKQGFSEEEVKRMKRAKAEPVTAMEKGQIIWEIDVESPSMPPEVGHKYDPDDVFCYIATPWHTYDKVLANFSGRVIEVCAKQGALVDKGEPLAYIERCEEPA", "soluble on expression in E. coli": "not soluble"},
      {"sequence": "SLSERTFNWKNKDIRAQVDVVDSKLLPTLLLRNALVLNPYVKQWLKKNIWIYQDRIVYVGHELPNRAEEIHTIDCEGKYIVPGYIEPHAHPFQIYNPQTLAEYVSQYGTTTFVNDNLFLLLQSGKKKALTILNELKKQPVQYFWWSRYDLQTEVLNEDHVLPFDVRKQWIEHPDVIQGGEMTGWPRLVDGDDLMLHCMQATKKQRKRIEGHFPGASDKTLTKMKLFGADCDHEAMTGDEVMRRLELGYYVSLRNSSIRPDVRKILQELHEKGFRYYDHFFYTTDGATPNFYKGGMTNELIRIALEEGVPAIDAYNMASFNIAKYYQMDDYLGVVGPGRLASLNILEDPLNPNPVTVLSKGTILRENGCDLKAFTKTDWHKGGLVPLELSYDMTMDDLQFSMPMGVKMRNAVIMEPYMIEIDNSMEQLSFDHDESYLTMLDRHGKWRVNTMIKGFASSVQGFVSSFTTTGDIVAIGKNKADMLLAFARMKEIGGGIVLAENGNILHEIPLALCGCASSEAYEDVLEKEQKLRDLLTERGYEFCDPIYTLLFLQSTHLPYIRITPRGIFDVMKKTVLFPSIMR", "soluble on expression in E. coli": "soluble"},
      {"sequence": "MAGDPMQADLFDAEQTGIRTRLGEQAWVLRGFALPWLDALLPALRAVIAQAPLRHMATPGGFTMSVALTNCGALGWTTDAHGYRYRPDDPQTGLPWPPMPQAFAQLAREAAAQAGFAGFDPDACLVNRYAPGARMSLHQDKNERDFGAPIVSVSLGLPAMFLFGGARRDERPARIPLLHGDVAVWGGVDRLRYHGVMPLAEGQHPLLGRQRINFTLRRAGALEHHHHHH", "soluble on expression in E. coli": "not soluble"},
      {"sequence": "QMNTVFIKNEGVTEGEIATIGEHTAEISGVSTGTDWTRDYSQSGALRSLLGTVSTEKQGLPAEEVDEYLKKGYARNDRVGTSYLEKQYEDVLQGKKAKSEVVLDNNGKIVSQTPISKGEKGSNLKLTID", "soluble on expression in E. coli": "not soluble"},
      {"sequence": "MFKKLLHSLFAGLTFMAAVAAVPAHAQEADAQTTVKTAVDDVLATIKGDSDLRSGNMQKVFQLVDQKIVPRADFKRTTQIAMGRFWSQATPEQQQQIQDGFKTLLVRTYAGALANVRNQTVSYKPFRAAADDTDVVVRSTVNNNGEPVALDYRMEKSANGWKVYDINISGLWLSETYKNQFAEVISKRGGVSGLVQFLDERNAQLAKGPAKLEHHHHHH", "soluble on expression in E. coli": "soluble"},
      {"sequence": "MGSDKIHHHHHHVKTRFFCQSCGQESPRWLGKCPGCGEWNTLVEEVVERAAAKRTPLGVKATPLTEIQIREEERVSSGSQELNRVLGGGIVPGSFVLLGGEPGIGKSTLLLQTAGLLAKGMDVLYISGEESEKQIKLRAERLGIKESRLHILTETRLEVVRDVALAMGPGLLIVDSIQTMVLEELQAAAGSVSQVREGAAFLMRLAKEEEIPIFLVGHVTKEGAIAGPRVLEHIVDTVLYFEGDRHHVYRLLRAVKNRFGSTNEIGVFEMHEDGLVEVPNPSKVFLGENSATAPGSSVAVIVEGSRPLLVEIQALVTPTTYGPPRRTATGIDYNRILMLLAVLDKKVGLHLGAQDVFINIAGGIRIDEPGVDLACIAAIASSLGERPLKRYALVGEVGLTGEVRGISQIEKRVKEAVKLGFEGCIIPRINVSAVKVPGNFTVIAVKTVEEAVQVMFEQ", "soluble on expression in E. coli": "not soluble"},
      {"sequence": "MKDLIIIGAGQAGLTMGYYLKQEGYNFLLLEAGKRVGDSWRNRYDSLQLFTPRSYSSLPGMALIGEKNEFPYKDEIATYLEEYARHFQLPVQLQTEVLKIKKEKEIFELHTPTEILQTKKVIIASGAFQQPFIPSVSANLSSHIFQIHSSQYKSPSQIPKGKVLVVGGGNSGMQIAVELAKTHEVTVSISHPLTFLPLQLFGKSIFNLLEKVGLLYAEINTKRGRWFQKRKDPIFGFEGKKLIRNGAIKLQEKVVSASRNNIMFQNGDTYSAESIIWSTGFVQNYNWIEIEQAVNEKGFPNHIKGISPVKGLYYIGLPWQSQRGSALICGVGKDAEYVLSEIKKIDQLEHHHHHH", "soluble on expression in E. coli": "soluble"}
    ]}
  ]
}
